# Article PMC6913123
# Target: T1, DDX21 (Homo sapiens) (UniProt Q9NR30)
# T1 sequence: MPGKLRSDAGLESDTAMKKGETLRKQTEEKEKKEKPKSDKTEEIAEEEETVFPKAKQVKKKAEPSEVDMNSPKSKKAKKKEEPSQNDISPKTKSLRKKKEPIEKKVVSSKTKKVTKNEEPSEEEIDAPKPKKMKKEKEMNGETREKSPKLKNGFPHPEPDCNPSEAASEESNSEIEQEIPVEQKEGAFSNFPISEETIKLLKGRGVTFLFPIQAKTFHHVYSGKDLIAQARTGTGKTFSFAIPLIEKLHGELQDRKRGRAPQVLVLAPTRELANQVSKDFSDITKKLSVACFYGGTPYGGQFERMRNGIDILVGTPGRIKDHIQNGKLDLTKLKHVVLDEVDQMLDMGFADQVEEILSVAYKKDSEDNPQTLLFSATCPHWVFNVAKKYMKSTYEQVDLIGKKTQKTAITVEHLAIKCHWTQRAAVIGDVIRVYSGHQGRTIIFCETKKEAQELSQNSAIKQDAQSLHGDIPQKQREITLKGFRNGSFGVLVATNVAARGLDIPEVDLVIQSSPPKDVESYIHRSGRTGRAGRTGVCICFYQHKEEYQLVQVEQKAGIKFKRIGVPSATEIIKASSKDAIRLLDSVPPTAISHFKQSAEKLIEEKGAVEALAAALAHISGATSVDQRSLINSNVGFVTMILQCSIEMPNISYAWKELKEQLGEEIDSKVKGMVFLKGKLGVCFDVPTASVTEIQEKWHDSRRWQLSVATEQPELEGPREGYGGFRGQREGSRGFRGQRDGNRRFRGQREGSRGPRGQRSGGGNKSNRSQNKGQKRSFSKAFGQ
# Test: EMSA
sequence,measurement,value
AGUGGCAUAAACAUGGGCUUUGGCGUCAGACAGCCCUGAGCGGGGCCCCAUUGCCCCACCCCCGAGGAAGGCGAGGGGGGGUGGCAGGGGGCUGCGGAAAGGGGCUGGGCUGGGUUGGGCUGUCUGCAGCUCUAGUCCAGGAGGCUGAGACUUCGAGAGGGACUUAGAGAAGGCAGACGCAUCCCGAACUCGCUGGAGGACAAGGCUCAGCUCUUGCCAGGCCAAAUUGAGAC [MAGED2 TV2 5'-UTR],Kd,0.1 µM
